The target of assay [1] is C13 monoclonal antibody (mouse). Put plainly: ELISA; indirect competitive ELISA at 4, 15, 26 and 37 °C; antibody mixed with serially diluted antigen until equilibrium, then 15 min on a well coated with GST-cCRY4CCE (1 μg/mL for C13 mAb); SM/TBS; affinity constants by fit to a model formula. (ELISA stands for enzyme-linked immunosorbent assay.)
The target in the next assay is T1, GST-cCRY4CCE (chicken).
T1 construct: chicken cryptochrome 4 (cCRY4) C-terminal region, Asp470-Thr529; also called cCRY4 C-terminal extension (CCE)
T1 chain: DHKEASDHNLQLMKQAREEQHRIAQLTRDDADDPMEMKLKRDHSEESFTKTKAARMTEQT
In words: ELISA; MBP-C13scFv-His refolded at various pH, dialysed against PBS pH 7.4, titrated on cCRY4CCE; detected with anti-6xHis antibody; EC50 by the Rodbard model.

In assay [2] the target is T2, recombinant chicken cryptochrome 4, full-length, untagged (chicken).
T2 construct: chicken cryptochrome 4 (cCRY4); last residue Thr529; calculated molecular mass 61,063 Da; also called cCRY4; non-tagged cCRY4; source: budding yeast MaV203, overexpressed, in soluble extract
T2 chain: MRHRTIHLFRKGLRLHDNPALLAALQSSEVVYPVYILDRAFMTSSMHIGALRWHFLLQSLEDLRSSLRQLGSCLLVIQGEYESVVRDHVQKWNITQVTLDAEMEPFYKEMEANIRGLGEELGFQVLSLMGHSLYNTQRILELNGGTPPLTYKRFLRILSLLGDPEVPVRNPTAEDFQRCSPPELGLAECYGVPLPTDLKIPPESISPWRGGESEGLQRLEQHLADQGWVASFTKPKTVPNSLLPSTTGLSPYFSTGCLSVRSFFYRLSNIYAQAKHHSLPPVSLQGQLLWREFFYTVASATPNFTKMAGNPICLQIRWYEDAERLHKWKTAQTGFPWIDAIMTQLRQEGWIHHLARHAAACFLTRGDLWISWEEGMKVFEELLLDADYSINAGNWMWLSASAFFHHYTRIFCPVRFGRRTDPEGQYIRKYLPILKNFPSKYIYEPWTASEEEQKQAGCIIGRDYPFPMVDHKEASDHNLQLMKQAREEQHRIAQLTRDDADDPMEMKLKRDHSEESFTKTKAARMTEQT
In words: pull-down; renatured MBP-THETAL-His immobilised on Affi-Gel 15; crude extract mixed with the gel at 4 °C, washed, eluted by warming to 42 °C or 37 °C. The following applies: one partner purified.

From article PMC6572768, “THETA system allows one-step isolation of tagged proteins through temperature-dependent protein–peptide interaction” (Communications Biology, 2019) come the findings set out here.

B1: GST-CT9 (peptide)
chain: TKTKAARMTEQT
The molecule B1 had a fold of the affinity constant at 4 °C over that at 37 °C in assay [1] of 480 times.

B2: MBP-C13scFv-His (scFv, V domains shown)
VH: EVKLEESGGGLVQPGGSLRLSCATSGFTFTDYYMSWVRQPPGKALEWLGFIRNKANVYTTEYSASVKGRFTISRDNSQSILYLQMNTLRAEDSATYYCARDGGYDDGGYAMDYWGQGTSVTVSS
VL: DIVMTQSHKFMSTSVGDRVSITCKASQDVGTAVAWYQQKPGQSPKLLIYWASTRHTGVPDRFTGSGSGTDFTLTISNVQSEDLADYFCQQYSSYPYTFGGGTKLEIK
notes: C13 variable light (VL); (GGGGS)3 linker; C13 variable heavy (VH); Order VL-linker-VH in pET-22b(+); also called MBP-THETAL-His; THETAL; not shown: MBP, N-terminal, kept; His6, C-terminal, kept
On to B2, for which the binding result (in the assay with GST-cCRY4CCE; in assay [2]) was “binds” each time.
